Reference: paper PMC6520365, “Structural and functional characterization of the PDZ domain of the human phosphatase PTPN3 and its interaction with the human papillomavirus E6 oncoprotein” (Scientific Reports, 2019)
Marks after values point to notes of the source that are not given here.

B1: PTPN3-PDZNext: PTPN3-PDZ extended at the N-terminal extremity by 15 residues with its wild-type upstream sequence (protein)
chain: STEDASQYYCDKNDNGDSYLVLIRITPDEDGKFGFNLKGGVDQKMPLVVSRINPESPADTCIPKLNEGDQIVLINGRDISEHTHDQVVMFIKASRESHSRELALVIRRRAVRSFADFKSEDELNQLFPEAIFPMCPEGGDTLEGSMAQLKKGLESGTVLIQFEQLYRKKPGLAITFAKLPQNLDKNRYKDVLPYDTTRVLLQGNEDYINASYVNMEIPAANLVNKYIATQGPLPHTCAQFWQVVWDQKLSLIVMLTTLTERGRTKCHQYWPDPPDVMNHGGFHIQCQSEDCTIAYVSREMLVTNTQTGEEHTVTHLQYVAWPDHGVPDDSSDFLEFVNYVRSLRVDSEPVLVHCSAGIGRTGVLVTMETAMCLTERNLPIYPLDIVRKMRDQRAMMVQTSSQYKFVCEAILRVYEEGLVQMLDPS
modifications: left off: GST, N-terminal, cleaved
B2: PTPN3-PDZ: recombinant PDZ domain of human PTPN3 expressed in E. coli (protein)
chain: GDSYLVLIRITPDEDGKFGFNLKGGVDQKMPLVVSRINPESPADTCIPKLNEGDQIVLINGRDISEHTHDQVVMFIKASRESHSRELALVIRRRAVRSFADFKSEDELNQLFPEAIFPMCPEGGDTLEGSMAQLKKGLESGTVLIQFEQLYRKKPGLAITFAKLPQNLDKNRYKDVLPYDTTRVLLQGNEDYINASYVNMEIPAANLVNKYIATQGPLPHTCAQFWQVVWDQKLSLIVMLTTLTERGRTKCHQYWPDPPDVMNHGGFHIQCQSEDCTIAYVSREMLVTNTQTGEEHTVTHLQYVAWPDHGVPDDSSDFLEFVNYVRSLRVDSEPVLVHCSAGIGRTGVLVTMETAMCLTERNLPIYPLDIVRKMRDQRAMMVQTSSQYKFVCEAILRVYEEGLVQMLDPS
modifications: left off: GST, N-terminal, cleaved
notes: recombinant PDZ domain of human PTPN3 expressed in E. coli

What was measured:
Type in all cases: physicochemical, human
[1] = AUC sedimentation velocity of free PTPN3 PDZ constructs; conditions: 20 °C
[2] = Aggregation/stability followed by NMR HSQC spectra at 20 °C
Description: To evaluate the stability of PTPN3-PDZ, we performed differential scanning calorimetry (DSC) (Fig. 2C). […] As a comparison, we performed DSC on PTPN4-PDZ. We obtained an endothermic peak with a Tm of 47 °C (Fig. 2C). […] This thermal instability of the PTPN3-PDZ construct could be responsible for its aggregation previously detected by NMR.
The instability and tendency to oligomerize of PTPN3-PDZ made this construct unsuitable for crystallogenesis. To gain in stability and protein expression yield, we extended the N-terminal extremity of PTPN3-PDZ by 15-residues with its wild-type upstream sequence (PTPN3-PDZNext in Fig. 1). These extensions have been reported to provide structural stability to some PDZ containing proteins[13],[14]. The PTPN3-PDZ production yield was increased two-fold after extension from 0.9 mg to 1.8 mg of purified protein per liter of culture. The stability of PTPN3-PDZNext was then evaluated by NMR HSQC spectra recorded during a week at 20 °C. […] The additional peaks of the N-terminal extension residues fall in the spectral region characteristic of unfolded protein and no chemical shift differences between PTPN3-PDZNext and the shorter form are detected.
A series of ^1H, ^15N HSQC spectra was recorded over a week at 20 °C for a sample of PTPN3-PDZNext at 170 μM to follow the stability of the construct.

[3] = DSC of free PDZ domain (thermal stability); conditions: 21 μM free PTPN3-PDZ, 18 μM PTPN4-PDZ, scan rate 200 °C/h, buffer A pH 7.5, repeated three times
Description: DSC experiments were carried out on a Microcal VP-capillary DSC (Malvern). 18, 21, 94 and 28 μM of PTPN4-PDZ, free PTPN3-PDZ, free PTPN3-PDZNext and PTPN3-PDZ complexed with peptides respectively were scanned from 10 °C to 90–100 °C with a scan rate of 200 °C/h. Large excess of peptides were used: about 600 μM for p38γ PBM, about 300 μM for HBVc PBM and HPV16E6 PBM and about 200 μM for HPV18E6 PBM. The buffer A was repeatedly scanned to ensure a stable buffer baseline. The buffer baseline was subtracted from the protein thermogram. Subsequent to normalization of the data by the protein concentration, a non-linear curve fitting algorithm was employed to obtain the Tm of the transition. All experiments were repeated three times.

[4] = AUC sedimentation velocity of free PTPN3 PDZ constructs; conditions: 20 °C; remark: listed apart in the source
Description: To estimate the oligomeric state of the PTPN3-PDZ construct, analytical ultracentrifugation (AUC) experiments were performed (Table 2). Three different concentrations of the protein were tested, 10, 25 and 70 μM. Only one single peak was detected at 10 μM with a sedimentation coefficient of 1.5S in agreement with a monomeric form of 10.5 kDa. At 25 μM, an additional peak was detected with a sedimentation coefficient of 2.6S corresponding to a dimeric form.
Sedimentation velocity experiments were carried out at 20 °C using a Beckman Coulter XL-I centrifuge equipped with a AN60-Ti rotor. Various protein and protein–peptide complex concentrations (protein concentrations ranging from 12.5 to 70 μM) samples were centrifuged for 17 h at 42000 rpm. Data were analyzed with SEDFIT 15.1 using a continuous size distribution c(S) model. The partial specific volume, the viscosity and the density of the samples were calculated with […]. The processed data were used to obtain values of sedimentation coefficients at null concentration in our experimental conditions (S0) and to get the standard sedimentation coefficients in water at 20 °C (S0,w,20) (Table 2).

[5] = PTPN3-PDZ 25 μM, two peaks are present

Molecule	MW estimated ([1]; PTPN3-PDZNext 17.5 μM) [kDa]	Sed coef (S0,w,20) ([1]; PTPN3-PDZNext 17.5 μM) [S]	MW estimated ([1]; PTPN3-PDZNext 35 μM) [kDa]	Sed coef (S0,w,20) ([1]; PTPN3-PDZNext 35 μM) [S]	MW estimated ([1]; PTPN3-PDZNext 70 μM) [kDa]	Sed coef (S0,w,20) ([1]; PTPN3-PDZNext 70 μM) [S]	oligomeric state of free PTPN3-PDZNext ([1]; PTPN3-PDZNext between 17.5 μM and 70 μM)	aggregation by HSQC peak intensity ([2]; HSQC recorded during a week at 20 °C, PTPN3-PDZNext 170 μM)	Tm (thermal transition midpoint), free PDZ domain [3] [°C]	MW estimated ([4]; PTPN3-PDZ 10 μM, 42000 rpm) [kDa]	Sed coef (S0,w,20) ([4]; PTPN3-PDZ 10 μM, standard coefficient in water at 20 °C) [S]	MW estimated [4, 5]	Sed coef (S0,w,20) [4, 5]	oligomeric state of free PTPN3-PDZ ([4]; PTPN3-PDZ 70 μM)	aggregation by HSQC peak intensity ([2]; after 10 h at 20 °C, data not shown)
B1	12.7	1.6	12.5	1.7	15	1.6	devoid of higher oligomeric species	without any signs of aggregation							
B2									41	12.4	1.5	11.3–25.9^a kDa	1.5–2.6^a S	higher oligomeric species could be detected	significant loss of peak intensities
